Laboratory results taken from paper PMC9495280 (Nature structural & molecular biology, 2022).
Residue numbers refer to the chain shown, from its start. Names may count otherwise. Where two headings read alike, the source gives them in different places.

B1: KaiB-I87A (natural protein, Synechococcus elongatus, UniProt Q79PF5 1-102, looked up)
chain: MSPRKTYILKLYVAGNTPNSVRALKTLKNILEVEFQGVYALKVIDVLKNPQLAEEDKILATPTLAKVLPLPVRRIIGDLSDREKVLAGLDLLYGELQDSDDF
B2: KaiC-EA K224A (natural protein)
chain: MTSAEMTSPNNNSEHQAIAKMRTMIEGFDDISHGGLPIGRSTLVSGTSGTGKTLFSIQFLYNGIIEFDEPGVFVTFEETPQDIIKNARSFGWDLAKLVDEGKLFILDASPDPEGQEVVGGFDLSALIERINYAIQKYRARRVSIDSVTSVFQQYDASSVVRRELFRLVARLKQIGATTVMTTERIEEYGPIARYGVEEFVSDNVVILRNVLEGERRRRTLEILALRGTSHMKGEYPFTITDHGINIFPLGAMRLTQRSSNVRVSSGVVRLDEMCGGGFFKDSIILATGATGTGKTLLVSRFVENACANKERAILFAYEESRAQLLRNAYSWGMDFEEMERQNLLKIVCAYPESAGLEDHLQIIKSEINDFKPARIAIDSLSALARGVSNNAFRQFVIGVTGYAKQEEITGLFTNTSDQFMGAHSITDSHIEAITDTIILLQYVEIRGEMSRAINVFKMRGSWHDKAIREFMISDKGPDIKDSFRNFERIISGSPTRITVDEKSELSRIVRGVQEKGPES
B3: nighttime KaiC H230A (natural protein)
chain: B2 chain with A224K, H230A
B4: nighttime KaiC R217A (natural protein)
chain: B2 chain with R217A, A224K
B5: nighttime KaiC-K457A (natural protein)
chain: B2 chain with A224K, K457A
B6: daytime KaiC-K457A (natural protein)
chain: B2 chain with A224K, E431A, A432E, K457A
B7: KaiC-S431A-T432E (natural protein, Synechococcus elongatus)
chain: B2 chain with A224K, E431A, A432E
B8: nighttime KaiC R226A (natural protein)
chain: B2 chain with A224K, R226A
B9: nighttime KaiC R216A (natural protein)
chain: B2 chain with R216A, A224K
B10: KaiC-S431E-T432A (natural protein, Synechococcus elongatus)
chain: B2 chain with A224K
B11: nighttime KaiC I430G (natural protein)
chain: B2 chain with A224K, I430G

What was measured:
KaiC-S431E-T432A = target: B10; test: fluorescence polarisation
[1] = target: fluorescently labeled KaiB (Synechococcus elongatus) (UniProt Q79PF5); test: fluorescence polarisation
cryo-EM structure [2] = target: the molecule itself; test: cryo-EM structure
cryo-EM structure [3] = target: the molecule itself; test: cryo-EM structure; remark: listed apart in the source

**Q.** Does B1 bind (KaiC-S431E-T432A)?
**A.** binds

**Q.** For B2, which Kd [1] is on record?
**A.** 4.6 µM

**Q.** For B3, which Kd [1] is on record?
**A.** 5.9 µM

**Q.** What does the source list for B4?
**A.** KaiB cooperativity index (fsKaiB as secondary titrant) [1]: 1.6; Kd [1]: > 13 µM

**Q.** How did the Kd [1] turn out when B5 was run?
**A.** 4.6 µM

**Q.** How did the Kd [1] turn out when B6 was run?
**A.** 7.3 µM

**Q.** What does the source list for B7?
**A.** stoichiometry N (cryo-EM structure [2]): 6; Kd [1]: > 43 µM

**Q.** For B8, which Kd [1] is on record?
**A.** > 38 µM

**Q.** B9 was tested. Which Kd [1] did it give?
**A.** > 25 µM

**Q.** For B10, which “stoichiometry N” value (cryo-EM structure [3]) is on record?
**A.** 6

**Q.** Which Kd [1] does the source give for B11 here?
**A.** > 25 µM
